Columns and labels:
[1] = biological target: Recombinant His-tagged BLM protein (human, UniProt P54132 1-1417); assay: pull-down
[2] = biological target: T1, Recombinant His-tagged WRN protein (human, UniProt Q14191 1-1432); assay: pull-down
[3] = biological target: T1, Recombinant His-tagged WRN protein; assay: ELISA

Sequence of Recombinant His-tagged BLM protein (P54132 whole entry): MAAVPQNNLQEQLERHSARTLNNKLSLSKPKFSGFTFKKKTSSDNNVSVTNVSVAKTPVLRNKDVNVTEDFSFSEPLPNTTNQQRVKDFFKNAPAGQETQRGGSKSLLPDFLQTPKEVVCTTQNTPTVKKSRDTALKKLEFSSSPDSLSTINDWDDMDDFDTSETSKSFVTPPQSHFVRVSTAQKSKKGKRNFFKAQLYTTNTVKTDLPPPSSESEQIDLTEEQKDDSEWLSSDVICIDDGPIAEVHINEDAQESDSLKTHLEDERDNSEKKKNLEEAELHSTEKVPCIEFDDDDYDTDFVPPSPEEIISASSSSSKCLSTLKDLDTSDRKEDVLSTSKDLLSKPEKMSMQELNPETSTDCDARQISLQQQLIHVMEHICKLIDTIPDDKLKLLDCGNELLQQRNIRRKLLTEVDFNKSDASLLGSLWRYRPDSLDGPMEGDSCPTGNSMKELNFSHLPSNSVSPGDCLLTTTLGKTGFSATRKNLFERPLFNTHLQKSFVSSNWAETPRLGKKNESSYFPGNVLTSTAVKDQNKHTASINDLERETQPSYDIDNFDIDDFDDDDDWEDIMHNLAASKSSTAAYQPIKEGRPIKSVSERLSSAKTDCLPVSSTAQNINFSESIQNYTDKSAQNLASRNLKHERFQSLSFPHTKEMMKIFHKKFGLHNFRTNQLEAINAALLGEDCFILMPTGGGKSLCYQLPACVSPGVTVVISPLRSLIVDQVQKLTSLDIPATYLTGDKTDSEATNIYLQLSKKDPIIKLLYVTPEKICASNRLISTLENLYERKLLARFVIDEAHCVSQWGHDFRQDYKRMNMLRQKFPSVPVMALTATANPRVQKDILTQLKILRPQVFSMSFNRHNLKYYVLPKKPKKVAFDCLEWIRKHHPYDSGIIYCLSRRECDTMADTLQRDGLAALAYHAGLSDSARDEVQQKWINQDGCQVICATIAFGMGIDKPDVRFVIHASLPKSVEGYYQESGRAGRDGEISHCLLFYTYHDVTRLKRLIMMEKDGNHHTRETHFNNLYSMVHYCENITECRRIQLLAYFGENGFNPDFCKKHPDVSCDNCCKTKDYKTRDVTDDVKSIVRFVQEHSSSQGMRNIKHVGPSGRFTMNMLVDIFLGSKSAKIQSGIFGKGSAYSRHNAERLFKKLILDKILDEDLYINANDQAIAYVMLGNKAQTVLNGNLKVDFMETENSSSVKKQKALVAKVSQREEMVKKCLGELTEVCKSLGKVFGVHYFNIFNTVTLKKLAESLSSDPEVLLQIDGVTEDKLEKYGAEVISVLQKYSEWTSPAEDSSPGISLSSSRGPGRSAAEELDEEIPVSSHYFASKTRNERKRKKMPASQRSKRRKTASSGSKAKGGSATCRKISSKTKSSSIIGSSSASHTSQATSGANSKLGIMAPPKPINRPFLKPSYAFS
T1 sequence (Q14191 whole entry): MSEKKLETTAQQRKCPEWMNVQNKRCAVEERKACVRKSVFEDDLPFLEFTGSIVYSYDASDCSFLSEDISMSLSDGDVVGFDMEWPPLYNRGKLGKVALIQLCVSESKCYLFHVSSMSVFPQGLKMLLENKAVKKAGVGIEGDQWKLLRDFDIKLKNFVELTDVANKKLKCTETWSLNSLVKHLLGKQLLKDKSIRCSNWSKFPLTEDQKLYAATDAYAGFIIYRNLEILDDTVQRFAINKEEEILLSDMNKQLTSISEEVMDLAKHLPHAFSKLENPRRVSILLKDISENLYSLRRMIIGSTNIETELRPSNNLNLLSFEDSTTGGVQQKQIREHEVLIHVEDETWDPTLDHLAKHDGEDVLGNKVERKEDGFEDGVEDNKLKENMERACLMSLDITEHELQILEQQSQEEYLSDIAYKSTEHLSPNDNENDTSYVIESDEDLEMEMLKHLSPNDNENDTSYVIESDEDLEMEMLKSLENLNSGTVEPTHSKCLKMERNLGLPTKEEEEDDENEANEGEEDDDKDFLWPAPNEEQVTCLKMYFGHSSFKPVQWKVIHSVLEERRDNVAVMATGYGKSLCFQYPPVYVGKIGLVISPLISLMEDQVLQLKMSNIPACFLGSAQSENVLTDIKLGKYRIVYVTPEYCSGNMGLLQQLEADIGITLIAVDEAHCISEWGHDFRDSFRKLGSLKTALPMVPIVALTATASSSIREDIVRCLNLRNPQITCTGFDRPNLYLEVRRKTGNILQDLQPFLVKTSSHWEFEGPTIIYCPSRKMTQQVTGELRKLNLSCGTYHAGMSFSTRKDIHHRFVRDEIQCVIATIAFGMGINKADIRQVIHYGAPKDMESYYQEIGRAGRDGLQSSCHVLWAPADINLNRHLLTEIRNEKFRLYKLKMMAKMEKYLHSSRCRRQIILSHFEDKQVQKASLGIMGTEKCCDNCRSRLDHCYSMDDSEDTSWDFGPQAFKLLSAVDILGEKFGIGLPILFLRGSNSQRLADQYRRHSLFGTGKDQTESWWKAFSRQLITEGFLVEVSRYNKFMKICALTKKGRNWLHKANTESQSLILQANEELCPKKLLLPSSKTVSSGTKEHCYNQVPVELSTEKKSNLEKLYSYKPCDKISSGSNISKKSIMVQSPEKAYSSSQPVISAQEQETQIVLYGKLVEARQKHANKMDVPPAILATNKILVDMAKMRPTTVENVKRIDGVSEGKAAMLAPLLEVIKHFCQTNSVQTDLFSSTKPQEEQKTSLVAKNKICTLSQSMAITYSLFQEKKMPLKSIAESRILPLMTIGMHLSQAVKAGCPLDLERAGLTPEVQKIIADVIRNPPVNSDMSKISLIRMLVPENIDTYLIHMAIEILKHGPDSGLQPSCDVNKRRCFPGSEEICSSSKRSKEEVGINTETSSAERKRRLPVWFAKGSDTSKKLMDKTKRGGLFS

B1: GST–FEN-1 fusion protein containing human FEN-1 amino acids 328–380 (domain or fragment, UniProt P39748 328-380, looked up)
chain: LSKSRQGSTQGRLDDFFKVTGSLSSAKRKEPEPKGSTKKKAKTGAAGKFKRGK
B1: binds [1]; binds [2].

B2: FEN-1ΔP (residues 337–344 are deleted) (enzyme, human, UniProt P39748 1-380, looked up)
chain: MGIQGLAKLIADVAPSAIRENDIKSYFGRKVAIDASMSIYQFLIAVRQGGDVLQNEEGETTSHLMGMFYRTIRMMENGIKPVYVFDGKPPQLKSGELAKRSERRAEAEKQLQQAQAAGAEQEVEKFTKRLVKVTKQHNDECKHLLSLMGIPYLDAPSEAEASCAALVKAGKVYAAATEDMDCLTFGSPVLMRHLTASEAKKLPIQEFHLSRILQELGLNQEQFVDLCILLGSDYCESIRGIGPKRAVDLIQKHKSIEEIVRRLDPNKYPVPENWLHKEAHQLFLEPEVLDPESVELKWSEPNEEELIKFMCGEKQFSEERIRSGVKRLSKSRQGSTKVTGSLSSAKRKEPEPKGSTKKKAKTGAAGKFKRGK
B2: binds [3].

B3: GST–FEN-1 fusion protein containing human FEN-1 amino acids 363–380 (domain or fragment, UniProt P39748 363-380, looked up)
chain: STKKKAKTGAAGKFKRGK
B3: binds [1]; binds [2].

B4: GST–FEN-1 fusion protein containing human FEN-1 amino acids 254–380 (domain or fragment, UniProt P39748 254-380, looked up)
chain: KSIEEIVRRLDPNKYPVPENWLHKEAHQLFLEPEVLDPESVELKWSEPNEEELIKFMCGEKQFSEERIRSGVKRLSKSRQGSTQGRLDDFFKVTGSLSSAKRKEPEPKGSTKKKAKTGAAGKFKRGK
B4: binds [1]; binds [2].
